Test: yeast display, Sf9 membrane polyspecificity reagent, FACS + sequencing; frameworks hold sequencing errors
Procedure, shortened: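 In a synthetic yeast display library (Saccharomyces cerevisiae BJ5465), nanobody expression was induced with galactose for 36–48 hours. FACS gates were set low and high (top ~1%) using anti-HA fluorescence for expression and streptavidin fluorescence for binding of the Sf9 membrane reagent. Each polyreactivity label is drawn from the gate of origin.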

| Sequence | polyreactivity (PSR sort gate) |
| --- | --- |
| QVQLVESGGGLVQAGGSLRLSCAASGFTFYSYAMGWSRQAPGKERELVAAISGGGGSTYYADSVKGRFTISRDNAKNTVYLQMNSLKPEDTAVYYCAKRPAYRGYGLGYYWGQGTQVTVSS | high polyreactivity |
| QVQLVESGGGLVQAGGSLRLSCAASGFTFYSYAMGWYRQAPGKERELVAAISWSGTRTYYADSVKGRFTISRDNAKNTVYLQMNSLKPEDTAVYYCAARGYRYGYGYWGQGTQVTVSS | high polyreactivity |
| QVQLVESGGGLVQAGGSLRLSCAASGFTFYSYAMGWYRQAPGKERELVAAITDRGGSTYYADSVKGRFTISRDNAKNTVYLQMNSLKPEDTAVYYCAAASGIRSYSYGWLGREYYWGQGTQVTVSS | high polyreactivity |
| QVQLVESGGGLVQAGGSLRLSCAASGFTFYSYAMGWYRQAPGKERELVAAITQSGGSTYYADSVKGRFTISRDNAKNTVYLQMNSLKPEDTAVYYCAADIYNDYDYGYYYWGQGTQVTVSS | low polyreactivity |
| QVQLVESGGGLVQAGGSLRLSCAASGFTFYSYAMGWYRQAPGKERELVAAITRSGGNTYYADSVKGRFTISRDNAKNTVYLQMNSLKPEDTAVYYCAAPGKGISPSHYYWGQGPQVTVSS | high polyreactivity |
| QVQLVESGGGLVQAGGSLRLSCAASGFTFYSYAMGWYRQAPGKERELVASISQSGGRTYYADSVKGRFTISRDNAKNTVYLQMNSLKPEDTAVYYCARQRSYGRSSYSYGYDYWGQGTQVTVSS | high polyreactivity |
| QVQLVESGGGLVQAGGSLRLSCAASGFTFYSYAMGWYRQSPGKERELVAAISWSGTRTYYADSVKGRFTISRDTAKNTVYLQMNSLKPEDTAVYYCAARGYRYGYGYWGQGTQVTVSS | high polyreactivity |
| QVQLVESGGGLVQAGGSLRLSCAASGFTFYSYVMGWYRQAPGKERELVAAIDPSGGRTYYADSVKGRFTISRDYAKNTVYLQMNSLKPVDTAVYYCAVPRVDYWGQGTQVTVSS | high polyreactivity |
| QVQLVESGGGLVQAGGSLRLSCAASGFTFYSYVMGWYRQAPGKERELVAAISWSGGSTYYADSVKGRFTISRDNAKNTVYLQMNSLKPEDTAVYYCAARRYASRTGYLYDYWGQGTQVTVSS | high polyreactivity |
| QVQLVESGGGLVQAGGSLRLSCAASGFTFYTNVMGWYRQAPGKERELVAAINSGGSTNYADSVKGRFTISRDNAKNTVYLQRNSLKPEDTAVYYCNKRGTEIGYDYWGQGTQVTVLS | low polyreactivity |
| QVQLVESGGGLVQAGGSLRLSCAASGFTFYTYAMGWYRQAPGKERELVADISSGGSTNYADSVKGRFTISRDNAKNTVYLQMNSLKPEDTAVYYCSADYYFLDWYDYWGQGTQVTVSS | low polyreactivity |
| QVQLVESGGGLVQAGGSLRLSCAASGFTFYTYMGWYRQAPGKERELVAAISWSGDSTYYADSVKGRFTISRDNAKNTVYLQMKSLKPEDTAVYYCAARRVFYNGYYVNVGSFYYWGQGTQVTVSS | low polyreactivity |
| QVQLVESGGGLVQAGGSLRLSCAASGFTFYTYTMGWYRQAPGKERELVAVITSRGTRTYYADSVKGRFTISRDNAKNTVYLQMNSLKPEDTAVYYCNKGAGWSFGYWGQGTQVTVSS | high polyreactivity |
| QVQLVESGGGLVQAGGSLRLSCAASGFTFYTYVMGWYRQAPGKERELVAAITSGVSTNYADSVKGRFTISRDNAKNTVYLQMNSVKPEDTAVYYCAAGYPSWYYGYPYDSWGQGTQVTVSS | low polyreactivity |
| QVQLVESGGGLVQAGGSLRLSCAASGFTFYVYAMGWDRQAPGKEREFVAAISSSGGSTYYADSVKGRFTISRDNAKNTVYLQMNSLKPEDTAVYYCAALAYSTTRGRLDYWGQGTQVTVSS | high polyreactivity |
| QVQLVESGGGLVQAGGSLRLSCAASGFTFYVYAMGWYRQAPGKERELVAAISRGGSTYYADSVKGRFTISRDNAKNTVYLQMNSLKPEDTAVYYCNRVPYVSSSKVRYSNGFDYWGQGTQVTVSS | low polyreactivity |
| QVQLVESGGGLVQAGGSLRLSCAASGFTFYVYVMGWYRPAPGKERELVAGISRGGSTYYADSVKGRFTISRDTAKNTVYLQMNSLKPEDTAVYYCNARRAWSSTYGYWGQGTQVTVSS | high polyreactivity |
| QVQLVESGGGLVQAGGSLRLSCAASGFTFYWNTMGWYRPAPGKERELVAAISWSGGDTDYADSVKGRFTISRDNAKNTVYLQMNSLKPEDTAVYYCNSIYVSDRSSAVSFDYWGQGTQVNVSS | low polyreactivity |
| QVQLVESGGGLVQAGGSLRLSCAASGFTFYWYAMGWYRQAPGKEREFVAAIDQSGGSTYYADSVKGRFTISRDNAKNTVYLQMNSLKPEDTAVYYCAAAYLRYVSTQYHYDYWGQGTQVTVSS | low polyreactivity |
| QVQLVESGGGLVQAGGSLRLSCAASGFTFYWYAMGWYRQAPGKEREFVAAIDQSGGSTYYADSVKGRFTISRDNAKNTVYLQMNSLKPEDTAVYYCAARYILWDGDSWTEFDYWGQGTQVTVSS | low polyreactivity |
| QVQLVESGGGLVQAGGSLRLSCAASGFTFYWYAMGWYRQAPGKERELVAAISRGGSTNYADSVKGRFTISRDNAKNTVYLQMNSLKPEDTAVYYCARDNPYRWFYRYVGEGDYWGQGTQVTVSS | low polyreactivity |
| QVQLVESGGGLVQAGGSLRLSCAASGFTFYWYAMGWYRQAPGKERELVAAITSGGGTTYYADSVKGRFTISRDNAKNTVYLQMNSLKPEDTAVYYCAADSYTYPWIERDYWGQGTQVTVSS | high polyreactivity |

| Sequence | polyreactivity (PSR sort gate) |
| --- | --- |
| QVQLVESGGGLVQAGGSLRLSCAASGFTFYYNAMGWYRQAPGKERELVAAISASGGRTYYADSVKGRFTISRDNAKNTVYLQINSLKPEDTAVYYCAYRVYPHYGWYDYWGQGTQVTVSS | high polyreactivity |
| QVQLVESGGGLVQAGGSLRLSCAASGFTFYYNAMGWYRQAPGKERELVAAISSRGTSTYYADSVKGRFTISRDNAKNTVYLQMNSLKPEDTAVYYCNTDRIGRYYQSYGGGHMDYWGQGTQVTVSS | high polyreactivity |
| QVQLVESGGGLVQAGGSLRLSCAASGFTFYYNAMGWYRQAPGKERELVAAISTGGSTYYADSVKGRFTISRDNAKNTVYLQMNSLKPEDTAVYYCAAKTYGRRWSYYYWGQGTQVTVSS | high polyreactivity |
| QVQLVESGGGLVQAGGSLRLSCAASGFTFYYNAMGWYRQAPGKERELVAAISTRGGNTYYADSVKGRFTISRDNAKNTVYLQMNSLKPEDTAVYYCARKIRREGRYDYWGQGTQVTVSS | high polyreactivity |
| QVQLVESGGGLVQAGGSLRLSCAASGFTFYYNAMGWYRQAPGKERELVAAITWDGGRTYYADSVKGRYTISRDNAKNTVYLQMNSLKTVDTAVYYCAAVEYSEHWDGYSWGEYYYWGQGTQVTVSS | high polyreactivity |
| QVQLVESGGGLVQAGGSLRLSCAASGFTFYYNAMGWYRQAPGKERELVAAMSGRGGSTHYADSVKGRFTISRDNAKNTVYLQMNSLKPEDTAVYYCNKVVRGSPEFDYWGQGTQVTVSS | high polyreactivity |
| QVQLVESGGGLVQAGGSLRLSCAASGFTFYYNARGWYRQAPGKERELVASITRSGGRTYYADSVKGRFTISRDNAKNTVYLQMNSLKPEDTAVYYCAAANHKGSRMDYWGQGTQVTVSS | high polyreactivity |
| QVQLVESGGGLVQAGGSLRLSCAASGFTFYYYAMGGYSQAPGKERELVAAISSTGGSTYYADSVKGRFTISRDNAKNTVYLQMNSLKPEDTAVYYCNAAGYRYPGDYDFWGQGTQVTVSS | high polyreactivity |
| QVQLVESGGGLVQAGGSLRLSCAASGFTFYYYAMGWYRQAPGKERELVAAIDTSDGSTYYADSVKGRFTISRDNAKNTVYLQMNSLKPEDTAVYYCAAEVDCVPFLLDYWGQGTQVTVSS | low polyreactivity |
| QVQLVESGGGLVQAGGSLRLSCAASGFTFYYYAMGWYRQAPGKERELVAAISRSGGSTYYADSVKGRFTISRDNAKNTVYLQMNSLKQEDTAVYYCAARRLVGAERPGYDDWGQGTQVTVSS | high polyreactivity |
| QVQLVESGGGLVQAGGSLRLSCAASGFTFYYYAMGWYRQAPGKERELVAAISSGGSTNYADSVKGRFTISRDNAKNTVYLPRNSLKPEDTAVYYCAAPQPYWWAYRYDYWGQGTQVTVSS | low polyreactivity |
| QVQLVESGGGLVQAGGSLRLSCAASGFTFYYYAMGWYRQAPGKERELVAGISKSGGITYYADSVKGRFTISLDNAKNTVYLQMNSLKPEDTAVYYCAAAEWYQFFIYRYTYEYWGQGTQVTVSS | low polyreactivity |
| QVQLVESGGGLVQAGGSLRLSCAASGFTFYYYAMGWYRQAPGKERELVASISWRGGSTYYADSVKGRFTISRDNAKNTVYLQMNSLKPEDTAVFYCAAQKRGSPGYRRDYWGQGTQVTVSS | high polyreactivity |
| QVQLVESGGGLVQAGGSLRLSCAASGFTFYYYAMGWYRQAPGKERELVATIRWSGGSTYYADSVKGRFTISRDNAKNTVYLQMNSLKPEDTAVYYCNATPPQYVKYPSYKYDYWGQGTQVTVSS | low polyreactivity |
| QVQLVESGGGLVQAGGSLRLSCAASGFTIFGYAMGWYRQAPGKERELVAAISTIDGDTYYADSVKGRFTISRDNAKNTVYLQMNSLKPEDTAVYYSAADDYIDGDDYWGQGTQVTVSS | low polyreactivity |
| QVQLVESGGGLVQAGGSLRLSCAASGFTIHGNAMGWYRPAPGKERELVAGISSSGASTYYADSVKGRFTISRDNAKNTVFLQMNSLKPEDTAVYYCAVRYYGRYLRYNYWGQGTQVTVSS | high polyreactivity |
| QVQLVESGGGLVQAGGSLRLSCAASGFTIIIYAMGWYRQAPGKERQLVAAINTSGTRTYYADSVKGRFTISRDNAKNTVYLQMNSLKPEDTAVYYCAARSGYKGEHGDRDDYWGQGTQVTVSS | high polyreactivity |
| QVQLVESGGGLVQAGGSLRLSCAASGFTIIRYAMGWYRQAPGKERDLVAAITTSGSGTYYAHSVKGRFTISRDNAKNTVYLQMNSLKPEDTAVDYCATDYRYRSYSRGAHDYWGQGTQVTVSS | low polyreactivity |
| QVQLVESGGGLVQAGGSLRLSCAASGFTIQFYTMGWYRQAPGKERELVAAISYNGDSTYYADSVKGRFTISRDNAKNTVYLQMNSLKPEDTAVYYCNTDLGTIYYYGYDYWGQGTQVTVSS | high polyreactivity |
| QVQLVESGGGLVQAGGSLRLSCAASGFTIQRYAMGWSRQAPGKERELVAAITSGGSTYYADSVKGRFTISRDNAKNTVYLQMNSLKPEDTAVYYCAAYYRGRAYISYGYWGQGTQVTVSS | high polyreactivity |
| QVQLVESGGGLVQAGGSLRLSCAASGFTIRQYAMGWYRQAPGKERELVAAISGRGGTTYYADSVKGRFTISRDNAKNTVYLQMNSLKPEDTAVYYCAARTFDRGKIPPPYDYWGQGTQVTVSS | high polyreactivity |

From the nanobody polyreactivity screen of Harvey et al. (2022)
